Laboratory results published in EP4748860A1 (Kanglitai Biomedical (Qingdao) Co., Ltd., dated 2026).

B1: HER2-8-hFc (Fc fusion)
chain: QVQLQESGGGLVQAGGSLRLSCAASGRTFSGAGVGWFRQDPEKEREFVAAIAWSGGSTRYADSVKGRFTISRDNTENTVFLQMNNLRPEDTAVYYCAATRRFYSGLTYTQRDVYDNWGQGTQVTVSS
notes: VHH gene cloned into pABG1-Fc (human Fc fragment), expressed in FreeStyle 293-F cells, Protein A purified; also called HER2-8-Fc; not shown: human Fc fragment of vector pABG1-Fc
B2: HER2-10-hFc (Fc fusion)
chain: QVQLQESGGGLVQPGGSLRLSCTAARNIFGRNVMGWFRQAPGKQREFVAHITGGSAVIYATSVKGRFTISRDNAKNTVYLQMNNLTLDDTAVYFCRAVNDDLWGQGTQVTVSS
notes: VHH gene cloned into pABG1-Fc (human Fc fragment), expressed in FreeStyle 293-F cells, Protein A purified; also called HER2-10-Fc; not shown: human Fc fragment of vector pABG1-Fc
B3: HER2-11-hFc (Fc fusion)
chain: QVQLQESGGGLVQAGGSLRLSCAASGHTVSRNMMGWFRQAPGKEREFVSAIAWNGEDTYYAESVEGRFTISKDNVKNTIYLQMNSLKPEDTAVYYCAASLFRLWNSATAGNNRVYHYWGQGTQVTVSS
notes: VHH gene cloned into pABG1-Fc (human Fc fragment), expressed in FreeStyle 293-F cells, Protein A purified; also called HER2-11-Fc; not shown: human Fc fragment of vector pABG1-Fc
B4: HER2-3-hFc (Fc fusion)
chain: QVQLQESGGGLVQAGDSLRLSCAASGLTFSTVGMGWFRQVLGMEREPVAGISWTGNVIGYAESVTGRFTISRDSAKNTVYLQMNSLKPEDTAVYYCAARRRGMSSYDYWGQGTQVTVSS
notes: VHH gene cloned into pABG1-Fc (human Fc fragment), expressed in FreeStyle 293-F cells, Protein A purified; also called HER2-3-Fc; not shown: human Fc fragment of vector pABG1-Fc

What follows are binders tested against BSA (UniProt P02769 25-607) (assay: ELISA, antigen coated at 200 ng per well).
BSA, sequence (P02769 25-607 limits assumed): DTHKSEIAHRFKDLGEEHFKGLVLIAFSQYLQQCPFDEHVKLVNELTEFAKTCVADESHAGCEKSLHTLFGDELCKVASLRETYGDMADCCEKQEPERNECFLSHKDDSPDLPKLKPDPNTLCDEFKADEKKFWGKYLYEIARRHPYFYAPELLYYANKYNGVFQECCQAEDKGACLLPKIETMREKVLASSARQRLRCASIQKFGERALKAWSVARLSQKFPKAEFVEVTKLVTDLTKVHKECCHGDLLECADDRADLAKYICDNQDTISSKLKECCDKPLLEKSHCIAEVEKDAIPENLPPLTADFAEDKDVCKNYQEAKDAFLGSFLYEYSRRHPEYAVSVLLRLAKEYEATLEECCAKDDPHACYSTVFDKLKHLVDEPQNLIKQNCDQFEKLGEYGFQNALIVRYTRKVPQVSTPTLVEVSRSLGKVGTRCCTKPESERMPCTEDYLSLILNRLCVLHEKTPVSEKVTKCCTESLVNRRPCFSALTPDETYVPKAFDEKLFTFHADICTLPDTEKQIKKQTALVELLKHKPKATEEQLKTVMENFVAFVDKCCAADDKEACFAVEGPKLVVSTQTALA
B1: no binding (tested: 0.2 µg per well). B2: no binding (tested: 0.2 µg per well). B3: no binding (tested: 0.2 µg per well). B4: no binding (tested: 0.2 µg per well).
